{"source": "paper PMC5034880", "binders": {"B1": {"name": "(GUU)10A10 RNA (ssRNA)", "RNA": "GUUGUUGUUGUUGUUGUUGUUGUUGUUGUUAAAAAAAAAA"}}, "molecular_target": "T1, PGL-3 (1-633)-6xHis-mEGFP (ΔRGG) (Caenorhabditis elegans, UniProt G5EBV6 1-633)", "T1 sequence": "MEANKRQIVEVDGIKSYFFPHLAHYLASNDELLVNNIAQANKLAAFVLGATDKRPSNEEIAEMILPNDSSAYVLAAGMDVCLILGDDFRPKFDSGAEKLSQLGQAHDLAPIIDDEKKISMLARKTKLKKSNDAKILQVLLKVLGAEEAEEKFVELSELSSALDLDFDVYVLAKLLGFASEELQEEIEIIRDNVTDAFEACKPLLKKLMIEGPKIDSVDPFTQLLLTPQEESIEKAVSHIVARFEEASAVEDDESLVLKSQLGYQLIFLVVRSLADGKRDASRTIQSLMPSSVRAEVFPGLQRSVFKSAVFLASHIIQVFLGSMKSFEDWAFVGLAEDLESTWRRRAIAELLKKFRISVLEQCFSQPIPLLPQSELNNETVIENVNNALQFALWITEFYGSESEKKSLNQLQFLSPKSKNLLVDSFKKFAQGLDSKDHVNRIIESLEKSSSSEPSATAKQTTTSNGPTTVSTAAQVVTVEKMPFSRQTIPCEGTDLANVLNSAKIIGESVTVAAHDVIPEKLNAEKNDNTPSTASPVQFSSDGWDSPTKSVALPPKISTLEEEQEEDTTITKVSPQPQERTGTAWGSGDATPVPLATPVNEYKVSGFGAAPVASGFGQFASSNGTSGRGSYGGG", "assay": "filter binding", "data": [{"binder": "B1", "values": [{"measurement": "binding signal", "result": "> 60 fold weaker than full-length PGL-3"}]}]}
